Assay results: the supplement of paper PMC10567573

B1: ANKRD40 (parent)
chain: VRIQNPSLRENDFIEIELDRQELT

Variants of: B1
Experiment: protein stability index of a GFP-peptide fusion (GPS, HEK-293T) (PSI 1-6); higher = more stable
Conditions: c terminus: a fixed tail appended
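Note: lentivirally expressed fusions sorted by FACS into six bins by GFP to DsRed ratio, PSI derived from sequencing read proportions per bin multiplied by bin number.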

Protein stability index of substitutions, site by site:
D12: H 2.11; M 3.11; F 2.14; K 2.61; N 2.64; G 1.68; Y 1.06; T 1.66; A 1.81; V 2.2; R 2.97; L 2.01; Q 2.1; E 2.29
E17: V 1.35; T 1.86; G 3.22; K 2.27; F 1.93; W 1.85; H 2.62; S 2.15; N 2.66; A 2.47; Y 2.22; R 2.14; M 1.81; Q 1.96
P6: L 2.17; A 2.75; C 2.06; F 1.66; N 2.67; M 2.18; K 2.67; S 2.16; R 2.69; Y 1.73; T 2.02; V 2.02; E 2.93
L8: Y 2.15; H 2.93; I 3.35; E 3.34; K 2.96; D 2.76; S 3.24; V 2.41; W 1.98; R 2.47; A 2.77; P 3.13; N 2.43; T 3.42; M 2.42; Q 3.11; C 2.36
F13: P 4.53; M 3.21; H 4.08; L 3.42; C 3.15; A 3.81; G 4.11; T 3.76; R 3.43; V 3.41; N 4.18; Q 4.32; W 2.44; I 2.36
Q21: A 2.05; N 2.99; F 1.77; E 2.82; T 2.47; R 2.24; H 2.12; W 1.73; P 2.46; V 1.76; G 2.32; S 2.08; I 1.31
V1: K 3.97; W 2.99; Q 4.27; L 2.71; E 4.77; G 4.27; I 2.03; A 3.91; M 2.79; F 2.58; D 5.15; R 3.63; P 4.53; H 4.04; S 4.3; C 3.51
N11: I 1.94; A 2.18; L 1.7; T 2.47; H 2.39; Q 2.54; G 2.32; F 1.69; E 1.79; Y 1.71; K 2.94; V 1.97; C 1.69; S 2.58; P 2.73
D19: Y 1.83; S 1.92; T 1.94; G 1.8; V 1.92; A 1.93; P 2.65; M 1.65; K 2.24; L 2.22; W 1.54
L18: H 4.48; T 4.51; W 1.82; G 4.38; E 5.04; Q 4.7; A 4.2; F 2.12; V 2.85; K 4.62; P 4.35; Y 3.03; D 4.8; C 3.61; N 4.72
E22: F 2.47; Q 1.86; V 2.1; R 2.65; T 2.06; L 2.61; A 2.36; W 1.82; Y 2.37; K 2.28
R2: V 2.46; F 1.87; K 2.98; T 3.5; I 2.29; S 3.64; P 4.93; Q 4.3; N 4.11; W 1.74; G 4.28; C 2.93
T24: Y 1.59; G 2.92; P 2.49; Q 3.03; A 2.3; I 2.19; N 2.48; D 3.24; F 1.88; H 2.63; V 2.2; E 3.16; R 2.79
R20: W 1.48; Y 1.84; C 2.12; V 2.29; A 2.31; M 2.92; I 2.82; G 2.56; Q 2.57; P 1.76; F 2.96; H 2.32; N 2.77; L 2.81; T 1.78; D 2.75
I14: D 5.22; M 3.34; Y 3.73; C 3.43; T 3.88; H 4.66; N 4.85; W 2.49; K 4.47; A 4; Q 4.31; V 3.1; L 3; E 4.92; R 4.34; P 4.27; G 3.87; F 2.87
E15: P 3.49; I 2.45; Q 2.18; D 2.95; V 1.89; A 2.38; M 1.95; R 2.13; S 2.02; C 1.87; H 2.94; G 3.02; T 2.27; F 1.82
L23: K 3.69; E 4.27; Q 3.44; S 3.89; T 3.52; Y 2.48; M 2.77; I 2.45; A 3.58; V 2.95; H 3.92; W 2.42
S7: Q 2.82; A 2.76; M 2.01; E 2.8; D 2.91; Y 2.16; K 2.81; L 2.09; N 2.79; I 2.56; T 3.04; P 3.72; R 2.39; H 2.13
Q4: T 2.27; N 2.46; C 2.01; H 2.11; V 2.01; Y 1.98; R 2.12; S 2.29; G 2.36; F 1.92; D 2.88; L 1.89; W 1.61
I3: A 4.17; R 3.88; F 2.44; L 2.75; K 3.44; W 2.4; S 3.84; Y 3.11; Q 3.71; C 3.22; V 3.06; G 4.05; T 3.9; N 4.28; E 4.63; P 3.77
E10: G 1.85; R 1.84; C 1.73; V 2.05; Q 2.37; Y 1.51; F 1.92; S 2.51; L 1.53; H 2.38; I 2; W 1.91; T 2.28
I16: E 4.8; C 4.09; M 3.49; H 4.59; F 2.83; T 4.44; W 2.89; A 4.19; G 4.55; L 2.65; K 4.69
R9: I 1.68; A 1.92; Q 2.16; P 2.63; H 1.81; W 2.14; F 1.51; T 2.54; N 1.93; K 2.62; D 2.23; M 1.97; E 2.74; V 2.03; S 2.41
N5: Y 1.36; M 2.73; P 2.08; G 1.9; T 2.16; K 2.74; S 1.74; A 1.86; I 2.43; C 2.45; E 3.08; H 1.73; R 2.29; D 2.48; Q 2.07
